Reference: PMC1266348, “HIV-1 reverse transcriptase mutations that confer decreased in vitro susceptibility to anti-RT DNA aptamer RT1t49 confer cross resistance to other anti-RT aptamers but not to standard RT inhibitors”

Target: HIV-1 RT wild type (HIV-1, UniProt P04585;P04585 588-1147;588-1027)
Test: competition (inhibition of polymerase activity); 6 mM Mg2+; 24 nM template-primer; 80 mM KCl, 50 mM Tris-Cl pH 8.0, 6 mM MgCl2, 1 mM DTT, 0.1 mg/ml BSA, 24 nM template-primer (16S rRNA/VP200), dNTPs, 25 ng RT per 50 ul, 37 C, 15 min; IC50 of p
Details: protein: recombinant; copies: 1;1

Binder ATCCGCCTGATTAGCGATACTCAGAAGGATAAACTGTCCAGAACTTGGA (ssDNA) [RT1t49] has an IC50 of 1.5 ± 0.03 nM.
